Experiments:
[1] = test system: AncSZ; assay: phosphorylation enrichment, bacterial display (enrichment ratio); higher = better substrate or ligand; peptides without Tyr show the background
[2] = target: EPHB1 (UniProt P54762); assay: as above
[3] = target: EPHB2 (UniProt P29323); assay: as above
[4] = target: FGFR1 (UniProt P11362); assay: as above
[5] = target: FGFR3 (UniProt P22607); assay: as above
[6] = test system: Fer (mouse); assay: as above
[7] = target: Fes (UniProt P07332); assay: as above
[8] = target: Fyn (UniProt P06241); assay: as above
[9] = target: Hck (UniProt P08631); assay: as above
[10] = target: Jak2 (UniProt O60674); assay: as above
[11] = target: MERTK (UniProt Q12866); assay: as above
[12] = test system: c-Abl (mouse); assay: as above
[13] = test system: c-Src; assay: as above
[14] = target: Grb2 SH2 (UniProt P62993); assay: SH2 binding enrichment of the phosphorylated peptide, bacterial display (enrichment ratio); higher = better substrate or ligand; peptides without Tyr show the background
[15] = target: SHP2-C SH2; assay: as above
[16] = target: c-Src SH2; assay: as above
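Wherever SH2 binding enrichment of the phosphorylated peptide, bacterial display is given: peptide library displayed on the E. coli surface as eCPX fusions, selected cells deep-sequenced, score is each peptide's frequency after selection divided by its frequency in the input.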
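Wherever phosphorylation enrichment, bacterial display is given: 11-residue human phosphosite peptides and single-mutation variants displayed on the E. coli surface, counted by deep sequencing, each peptide's frequency after selection divided by its frequency in the unselected input library; frequency after pTyr selection over input frequency; kinase dosed for 20-30% of maximal phosphorylation in three min.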

FGFR3, sequence (P22607 whole entry, looked up): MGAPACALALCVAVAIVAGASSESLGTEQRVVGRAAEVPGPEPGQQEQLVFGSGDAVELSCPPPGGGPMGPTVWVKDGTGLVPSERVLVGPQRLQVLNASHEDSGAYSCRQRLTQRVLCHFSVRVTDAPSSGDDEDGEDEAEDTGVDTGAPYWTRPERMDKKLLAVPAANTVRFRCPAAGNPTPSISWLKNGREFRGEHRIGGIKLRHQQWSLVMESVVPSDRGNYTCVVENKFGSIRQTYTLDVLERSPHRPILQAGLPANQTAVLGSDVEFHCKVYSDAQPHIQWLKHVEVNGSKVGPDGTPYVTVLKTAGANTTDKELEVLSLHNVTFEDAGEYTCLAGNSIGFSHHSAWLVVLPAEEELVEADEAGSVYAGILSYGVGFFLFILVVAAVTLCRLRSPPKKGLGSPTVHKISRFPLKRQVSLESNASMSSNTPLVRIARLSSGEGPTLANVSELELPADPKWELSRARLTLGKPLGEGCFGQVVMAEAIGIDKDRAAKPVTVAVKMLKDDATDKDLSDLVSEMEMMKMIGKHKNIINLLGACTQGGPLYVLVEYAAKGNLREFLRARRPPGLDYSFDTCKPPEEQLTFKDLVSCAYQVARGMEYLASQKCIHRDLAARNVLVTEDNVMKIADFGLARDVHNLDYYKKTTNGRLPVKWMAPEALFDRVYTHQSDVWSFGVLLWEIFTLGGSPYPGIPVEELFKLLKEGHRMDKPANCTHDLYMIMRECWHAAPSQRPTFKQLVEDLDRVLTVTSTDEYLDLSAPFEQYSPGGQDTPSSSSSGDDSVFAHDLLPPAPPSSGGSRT
Jak2, sequence (O60674 whole entry, looked up): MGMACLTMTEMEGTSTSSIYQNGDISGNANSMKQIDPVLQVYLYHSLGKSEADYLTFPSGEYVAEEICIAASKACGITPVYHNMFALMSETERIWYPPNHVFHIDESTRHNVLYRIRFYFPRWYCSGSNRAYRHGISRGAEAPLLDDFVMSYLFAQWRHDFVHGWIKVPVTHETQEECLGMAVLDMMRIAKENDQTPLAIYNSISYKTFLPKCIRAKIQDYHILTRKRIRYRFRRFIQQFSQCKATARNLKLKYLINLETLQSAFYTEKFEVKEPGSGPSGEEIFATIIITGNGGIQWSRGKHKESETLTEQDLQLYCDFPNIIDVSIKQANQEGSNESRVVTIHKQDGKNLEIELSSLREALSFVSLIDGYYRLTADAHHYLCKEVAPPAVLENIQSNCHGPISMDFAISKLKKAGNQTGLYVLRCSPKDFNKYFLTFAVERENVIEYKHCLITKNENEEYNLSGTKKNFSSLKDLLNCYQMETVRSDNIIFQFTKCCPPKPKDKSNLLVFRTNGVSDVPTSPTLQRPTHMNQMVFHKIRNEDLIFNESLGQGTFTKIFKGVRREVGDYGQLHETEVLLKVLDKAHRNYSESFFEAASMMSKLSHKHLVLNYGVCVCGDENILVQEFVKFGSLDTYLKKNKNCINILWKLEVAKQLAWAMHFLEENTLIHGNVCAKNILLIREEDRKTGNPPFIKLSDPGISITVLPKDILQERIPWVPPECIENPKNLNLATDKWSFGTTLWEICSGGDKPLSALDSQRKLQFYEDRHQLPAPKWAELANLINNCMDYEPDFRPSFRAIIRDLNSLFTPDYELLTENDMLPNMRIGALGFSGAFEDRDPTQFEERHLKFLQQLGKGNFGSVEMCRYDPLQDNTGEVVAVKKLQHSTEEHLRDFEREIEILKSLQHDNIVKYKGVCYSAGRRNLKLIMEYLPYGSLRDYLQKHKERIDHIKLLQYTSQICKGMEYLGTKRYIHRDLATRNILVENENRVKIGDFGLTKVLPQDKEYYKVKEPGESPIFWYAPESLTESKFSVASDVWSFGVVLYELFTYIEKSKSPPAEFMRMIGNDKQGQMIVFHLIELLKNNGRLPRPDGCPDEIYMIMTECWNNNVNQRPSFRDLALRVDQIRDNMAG
EPHB2, sequence (P29323 whole entry, looked up): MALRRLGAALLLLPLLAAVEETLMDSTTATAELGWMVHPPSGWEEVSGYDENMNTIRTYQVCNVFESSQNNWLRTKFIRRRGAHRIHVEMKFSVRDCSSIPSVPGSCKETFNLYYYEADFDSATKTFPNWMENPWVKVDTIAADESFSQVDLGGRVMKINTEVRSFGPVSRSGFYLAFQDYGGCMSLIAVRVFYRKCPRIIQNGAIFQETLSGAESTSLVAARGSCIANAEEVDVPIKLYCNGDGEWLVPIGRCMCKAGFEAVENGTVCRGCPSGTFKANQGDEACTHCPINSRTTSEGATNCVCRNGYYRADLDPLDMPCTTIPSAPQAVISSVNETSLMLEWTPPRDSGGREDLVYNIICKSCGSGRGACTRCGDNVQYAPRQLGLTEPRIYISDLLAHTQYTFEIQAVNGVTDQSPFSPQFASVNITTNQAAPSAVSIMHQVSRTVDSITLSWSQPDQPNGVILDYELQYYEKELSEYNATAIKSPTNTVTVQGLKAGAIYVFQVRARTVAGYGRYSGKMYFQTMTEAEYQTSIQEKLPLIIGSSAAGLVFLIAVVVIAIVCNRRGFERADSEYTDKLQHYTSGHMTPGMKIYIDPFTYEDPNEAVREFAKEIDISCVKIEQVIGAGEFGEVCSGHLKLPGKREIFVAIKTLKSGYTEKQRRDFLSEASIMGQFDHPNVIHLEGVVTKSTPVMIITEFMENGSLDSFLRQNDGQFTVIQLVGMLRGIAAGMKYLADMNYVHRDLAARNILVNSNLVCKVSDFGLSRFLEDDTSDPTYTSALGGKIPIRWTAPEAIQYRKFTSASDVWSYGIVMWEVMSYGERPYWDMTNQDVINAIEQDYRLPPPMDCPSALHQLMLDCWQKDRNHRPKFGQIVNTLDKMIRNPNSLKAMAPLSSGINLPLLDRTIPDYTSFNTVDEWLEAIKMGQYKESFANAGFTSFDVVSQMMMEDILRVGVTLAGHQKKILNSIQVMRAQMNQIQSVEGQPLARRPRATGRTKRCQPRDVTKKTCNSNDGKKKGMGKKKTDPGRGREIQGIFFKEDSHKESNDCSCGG
Fes, sequence (P07332 whole entry, looked up): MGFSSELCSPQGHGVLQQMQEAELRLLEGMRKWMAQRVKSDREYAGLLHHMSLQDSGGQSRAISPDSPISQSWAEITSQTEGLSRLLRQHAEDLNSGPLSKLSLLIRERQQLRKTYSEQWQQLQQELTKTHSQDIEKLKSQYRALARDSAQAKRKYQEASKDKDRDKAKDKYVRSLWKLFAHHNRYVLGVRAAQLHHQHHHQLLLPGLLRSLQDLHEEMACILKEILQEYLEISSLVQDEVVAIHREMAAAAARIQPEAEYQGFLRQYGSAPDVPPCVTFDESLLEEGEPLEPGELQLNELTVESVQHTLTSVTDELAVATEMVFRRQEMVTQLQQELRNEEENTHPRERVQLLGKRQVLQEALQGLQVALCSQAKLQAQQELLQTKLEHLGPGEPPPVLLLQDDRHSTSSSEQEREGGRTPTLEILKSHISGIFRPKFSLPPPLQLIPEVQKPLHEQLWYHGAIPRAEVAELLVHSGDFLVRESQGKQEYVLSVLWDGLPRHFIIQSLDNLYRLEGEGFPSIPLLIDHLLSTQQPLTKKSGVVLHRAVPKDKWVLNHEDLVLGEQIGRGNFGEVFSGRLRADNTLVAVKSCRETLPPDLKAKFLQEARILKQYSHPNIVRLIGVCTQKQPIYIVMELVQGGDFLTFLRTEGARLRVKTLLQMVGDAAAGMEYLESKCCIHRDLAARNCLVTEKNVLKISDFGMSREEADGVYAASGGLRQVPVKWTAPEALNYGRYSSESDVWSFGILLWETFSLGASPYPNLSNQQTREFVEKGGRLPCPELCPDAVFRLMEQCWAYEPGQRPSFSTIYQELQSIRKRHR
Fyn, sequence (P06241 whole entry, looked up): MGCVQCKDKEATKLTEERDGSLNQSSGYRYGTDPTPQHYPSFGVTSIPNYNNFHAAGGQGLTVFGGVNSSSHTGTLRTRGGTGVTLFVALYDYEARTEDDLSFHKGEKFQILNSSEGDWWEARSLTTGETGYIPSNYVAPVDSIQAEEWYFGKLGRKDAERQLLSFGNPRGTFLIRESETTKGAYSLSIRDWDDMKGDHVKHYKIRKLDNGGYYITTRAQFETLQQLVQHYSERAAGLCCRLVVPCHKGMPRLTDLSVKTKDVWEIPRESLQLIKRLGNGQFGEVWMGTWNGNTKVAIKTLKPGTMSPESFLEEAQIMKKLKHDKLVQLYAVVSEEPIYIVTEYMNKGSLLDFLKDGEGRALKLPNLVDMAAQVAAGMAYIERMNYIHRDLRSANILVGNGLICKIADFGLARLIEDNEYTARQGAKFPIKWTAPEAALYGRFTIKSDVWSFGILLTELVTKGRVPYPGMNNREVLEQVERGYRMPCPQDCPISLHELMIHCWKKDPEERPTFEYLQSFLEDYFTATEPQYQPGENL
Hck, sequence (P08631 whole entry, looked up): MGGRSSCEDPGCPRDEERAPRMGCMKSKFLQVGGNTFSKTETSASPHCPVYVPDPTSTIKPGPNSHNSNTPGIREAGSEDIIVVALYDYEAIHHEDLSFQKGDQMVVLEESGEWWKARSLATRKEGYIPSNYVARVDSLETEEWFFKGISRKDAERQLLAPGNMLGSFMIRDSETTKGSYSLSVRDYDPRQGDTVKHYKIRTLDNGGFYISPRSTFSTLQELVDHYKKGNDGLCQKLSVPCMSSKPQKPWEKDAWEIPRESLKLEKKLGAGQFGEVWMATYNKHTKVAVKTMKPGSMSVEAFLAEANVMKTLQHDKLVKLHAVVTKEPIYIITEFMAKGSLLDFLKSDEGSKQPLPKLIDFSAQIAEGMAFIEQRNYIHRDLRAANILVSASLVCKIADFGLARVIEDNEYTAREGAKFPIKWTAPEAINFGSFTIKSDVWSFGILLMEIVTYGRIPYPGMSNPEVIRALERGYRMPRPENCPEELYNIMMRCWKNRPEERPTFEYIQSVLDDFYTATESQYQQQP

| Sequence | SH2 binding enrichment [14] | SH2 binding enrichment [15] | SH2 binding enrichment [16] | phosphorylation enrichment [1] | phosphorylation enrichment [2] | phosphorylation enrichment [3] | phosphorylation enrichment [4] | phosphorylation enrichment [5] | phosphorylation enrichment [6] | phosphorylation enrichment [7] | phosphorylation enrichment [8] | phosphorylation enrichment [9] | phosphorylation enrichment [10] | phosphorylation enrichment [11] | phosphorylation enrichment [12] | phosphorylation enrichment [13] |
| --- | --- | --- | --- | --- | --- | --- | --- | --- | --- | --- | --- | --- | --- | --- | --- | --- |
| ALTRSYIREKV [CYP2C8_Y243] | 0.655 | 0.576 | 0.433 | 0.524 | 0.388 | 0.316 | 0.423 | 0.367 | 0.43 | 0.596 | 0.422 | 0.4 | 0.445 | 0.369 | 0.417 | 0.419 |
| TTPAVYARVTK [CTRB2_Y246_A250T] | 0.696 | 0.383 | 2.11 | 0.443 | 0.665 | 0.768 | 0.262 | 0.496 | 0.378 | 0.442 | 2.46 | 2.42 | 0.618 | 0.725 | 1.32 | 3.55 |
| DLDFTYIYPNI [PTEN_Y27_L25F] | 0.67 | 0.496 | 2.69 | 4.17 | 0.83 | 0.945 | 4.18 | 3.11 | 0.501 | 1.23 | 2.5 | 1.37 | 2.36 | 1.22 | 0.953 | 1.47 |
| FSLPAFMDRRD [COX4I1_Y38_Y38F] | 1.02 | 1.03 | 0.639 | 0.947 | 0.396 | 0.456 | 0.473 | 0.537 | 0.455 | 0.81 | 0.458 | 0.41 | 0.807 | 0.4 | 0.497 | 0.459 |
| ASGKYYAMKIL [AKT3_Y174] | 0.957 | 0.941 | 1.43 | 0.664 | 0.313 | 0.407 | 0.74 | 0.623 | 0.434 | 0.657 | 0.446 | 0.434 | 0.662 | 0.591 | 0.582 | 0.396 |

Continued, in another order:

| SH2 binding enrichment [14] | SH2 binding enrichment [15] | SH2 binding enrichment [16] | Sequence | phosphorylation enrichment [1] | phosphorylation enrichment [2] | phosphorylation enrichment [3] | phosphorylation enrichment [4] | phosphorylation enrichment [5] | phosphorylation enrichment [6] | phosphorylation enrichment [7] | phosphorylation enrichment [8] | phosphorylation enrichment [9] | phosphorylation enrichment [10] | phosphorylation enrichment [11] | phosphorylation enrichment [12] | phosphorylation enrichment [13] |
| --- | --- | --- | --- | --- | --- | --- | --- | --- | --- | --- | --- | --- | --- | --- | --- | --- |
| 0.855 | 0.973 | 0.461 | PLFRKYWPNHI [GREB1L_Y1560_YF] | 1.17 | 0.589 | 0.498 | 0.505 | 0.565 | 0.482 | 0.994 | 0.698 | 0.727 | 0.695 | 0.633 | 0.557 | 0.491 |
| 0.752 | 0.761 | 0.427 | NHYKIYNPCAE [PTEN_Y68_L70P] | 0.714 | 0.437 | 0.48 | 0.485 | 0.573 | 0.382 | 0.834 | 0.508 | 0.55 | 0.569 | 0.427 | 0.607 | 0.424 |
| 0.671 | 0.488 | 0.442 | TPGPNYRPGYN [USH2A_Y463] | 0.562 | 0.39 | 0.542 | 0.232 | 0.676 | 0.294 | 0.549 | 0.432 | 0.346 | 0.597 | 0.487 | 0.404 | 0.309 |

Source: the supplement of paper PMC10065799, “High-throughput profiling of sequence recognition by tyrosine kinases and SH2 domains using bacterial peptide display” (eLife, 2023)
